From US20260167959A1, “APTAZYME-BASED REGULATABLE GENE EXPRESSION SYSTEMS” (REJUVENATE BIO INC, priority 2022, published 2026) come the findings set out here.

Substitutions are numbered along the chain they refer to.

B1: RA359 (nucleic acid)
DNA: GCGCGTCCTGGATAGAATACCAGCATCGTCTTGATGCCCTTGGAAGTCTTCGCGGAAACGCGTACATCCAGCTGACGAGTCCCAAATAGGACGAAACGCGC
modifications: expressed or natural sequence
B2: RA351 (nucleic acid)
DNA: GCGCGTCCTGGATTCGCGGAAACGCGTACATCCAGCGAGAATACCAGCATCGTCTTGATGCCCTTGGAAGTCTCTGACGAGTCCCAAATAGGACGAAACGCGC
modifications: expressed or natural sequence
B3: RA347 (nucleic acid)
DNA: GCGCGTCCTGGATTCGCGGAAACGCAGAATACCAGCATCGTCTTGATGCCCTTGGAAGTCTGTACATCCAGCTGACGAGTCCCAAATAGGACGAAACGCGC
modifications: expressed or natural sequence
B4: RA349 (nucleic acid)
DNA: GCGCGTCCTGGATTCGCGGAAACGCGTACATCCAGCTGACGAGGAGAATACCAGCATCGTCTTGATGCCCTTGGAAGTCTCTCCCAAATAGGACGAAACGCGC
modifications: expressed or natural sequence
B5: RA358 (nucleic acid)
DNA: B4 DNA with G44C, A45G, T80C, C81G
modifications: expressed or natural sequence
B6: RA357 (nucleic acid)
DNA: GCGCGTCCTGGATTCGCGGAAACGCGTACATCCAGCTGACGAGTCCCAAATAGGACGGGAATACCAGCATCGTCTTGATGCCCTTGGAAGTCCAAACGCGC
modifications: expressed or natural sequence
B7: RA343 (nucleic acid)
DNA: GCGCGTCCGGAATACCAGCATCGTCTTGATGCCCTTGGAAGTCCGCTGGATTCGCGGAAACGCGTACATCCAGCTGACGAGTCCCAAATAGGACGAAACGCGC
modifications: expressed or natural sequence
B8: RA348 (nucleic acid)
DNA: GCGCGTCCTGGATTCGCGGAAACGCGTACATCCAGCTGACGACGAGAATACCAGCATCGTCTTGATGCCCTTGGAAGTCTCGGTCCCAAATAGGACGAAACGCGC
modifications: expressed or natural sequence
B9: RA339 (nucleic acid)
DNA: GCGCGTCCTGGATTGGAATACCAGCATCGTCTTGATGCCCTTGGAAGTCCCGCGGAAACGCGTACATCCAGCTGACGAGTCCCAAATAGGACGAAACGCGC
modifications: expressed or natural sequence
B10: RA338 (nucleic acid)
DNA: GCGCGTCCTGGATTCGCGGAAACGAGAATACCAGCATCGTCTTGATGCCCTTGGAAGTCTCGCGCGTACATCCAGCTGACGAGTCCCAAATAGGACGAAACGCGC
modifications: expressed or natural sequence
B11: RA345 (nucleic acid)
DNA: GCGCGTCCTGGATTCGCGGAAACGCGTACATCCAGCTGACGAGTCCCAAATAGGACGAAACGCGAGAATACCAGCATCGTCTTGATGCCCTTGGAAGTCTC
modifications: expressed or natural sequence
B12: RA335 (nucleic acid)
DNA: GCGCGTCCTGGATTCGCGGAAACGCGTAGGAATACCAGCATCGTCTTGATGCCCTTGGAAGTCCCATCCAGCTGACGAGTCCCAAATAGGACGAAACGCGC
modifications: expressed or natural sequence
B13: RA355 (nucleic acid)
DNA: GCGCGTCCTGGATTCGCGGAAACGCGTACATCGAGAATACCAGCATCGTCTTGATGCCCTTGGAAGTCTCCAGCTGACGAGTCCCAAATAGGACGAAACGCGC
modifications: expressed or natural sequence
B14: RA342 (nucleic acid)
DNA: GCGCGTCCTGGATTCGCGGAAACGCGTACGGAATACCAGCATCGTCTTGATGCCCTTGGAAGTCCGCATCCAGCTGACGAGTCCCAAATAGGACGAAACGCGC
modifications: expressed or natural sequence
B15: RA356 (nucleic acid)
DNA: GCGCGTCCTGGATTCGCGGAAACGCGTACATCCAGCTGACGAGTCCCAAATAGGACGAAAGAGAATACCAGCATCGTCTTGATGCCCTTGGAAGTCTCCGCGC
modifications: expressed or natural sequence
B16: RA346 (nucleic acid)
DNA: GCGCGTCCTGGATTCGCGGAAACGCGTACATCCAGCTGGAATACCAGCATCGTCTTGATGCCCTTGGAAGTCCGACGAGTCCCAAATAGGACGAAACGCGC
modifications: expressed or natural sequence
B17: RA336 (nucleic acid)
DNA: GCGCGTCCTGGATTCGCGGAAAGTGATACCAGCATCGTCTTGATGCCCTTGGCAGCACTACGCGTACATCCAGCTGACGAGTCCCAAATAGGACGAAACGCGC
modifications: expressed or natural sequence
B18: RA350 (nucleic acid)
DNA: GCGCAGAATACCAGCATCGTCTTGATGCCCTTGGAAGTCTGTCCTGGATTCGCGGAAACGCGTACATCCAGCTGACGAGTCCCAAATAGGACGAAACGCGC
modifications: expressed or natural sequence
B19: RA344 (nucleic acid)
DNA: GCGCGTCCTGGATTCGCGGAAACCCGGAATACCAGCATCGTCTTGATGCCCTTGGAAGTCCGGGCGTACATCCAGCTGACGAGTCCCAAATAGGACGAAACGCGC
modifications: expressed or natural sequence
B20: RA337 (nucleic acid)
DNA: GCGCGTAGAATACCAGCATCGTCTTGATGCCCTTGGAAGTCTCCTGGATTCGCGGAAACGCGTACATCCAGCTGACGAGTCCCAAATAGGACGAAACGCGC
modifications: expressed or natural sequence
B21: RA352 (nucleic acid)
DNA: GCGCGTCCTGGATTCGCGGAAACGCGTACATCCAGCTGACGAGTCCCAAATAGGACGAAACGCGCGAGAATACCAGCATCGTCTTGATGCCCTTGGAAGTCTCGC
modifications: expressed or natural sequence
B22: RA354 (nucleic acid)
DNA: GCGCGTCCTGGATTCGCGGAAACGCGTACATCCAGCTGACGAGTCCCAAATAGGAGTGATACCAGCATCGTCTTGATGCCCTTGGCAGCACTACGAAACGCGC
modifications: expressed or natural sequence
B23: RA353 (nucleic acid)
DNA: GCGCGTCCTGGATTCGCGGAAACGCGTACATCCAGCTGACGAGTCCCAAATAGGACGAAACGCCGGAATACCAGCATCGTCTTGATGCCCTTGGAAGTCCGGCGC
modifications: expressed or natural sequence
B24: RA341 (nucleic acid)
DNA: GCGGAATACCAGCATCGTCTTGATGCCCTTGGAAGTCCGCGTCCTGGATTCGCGGAAACGCGTACATCCAGCTGACGAGTCCCAAATAGGACGAAACGCGC
modifications: expressed or natural sequence
B25: RA340 (nucleic acid)
DNA: GCGCAGTGATACCAGCATCGTCTTGATGCCCTTGGCAGCACTGTCCTGGATTCGCGGAAACGCGTACATCCAGCTGACGAGTCCCAAATAGGACGAAACGCGC
modifications: expressed or natural sequence
B26: RA033 (nucleic acid)
DNA: GCGCGTCCTGGATTCGCGGAAACGCGTACATCCAGCTGACGAGTCCCAAATCCGGAATACCAGCATCGTCTTGATGCCCTTGGAAGTCCGGAGGACGAAACGCGC
modifications: expressed or natural sequence
B27: RA034 (nucleic acid)
DNA: GCGCGTCCTGGATTCGCGGAAACGCGTACATCCAGCTGACGAGAGAATACCAGCATCGTCTTGATGCCCTTGGAAGTCTCGTCCCAAATAGGACGAAACGCGC
modifications: expressed or natural sequence

The first data set deals with Renilla luciferase RNA. As to the kind of experiment: Barcoded aptazyme variant library screen: un-cleaved Renilla luciferase RNA by barcode read counts, HEK293-T cells. It counts as cell-based. As to conditions: un-cleaved Renilla luciferase RNA by barcode read counts; with 1 mM theophylline (ON) over without theophylline (OFF); HEK293-T cells; triplicate. A digest of the protocol: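 Aptazyme variants (seven theophylline aptamers inserted after each T3H48 ribozyme nucleotide, 9-nt barcoded) cloned into the 3′ UTR of Renilla luciferase in psiCHECK-2; cells cultured ± theophylline, in triplicate. RNA and DNA barcodes amplified and sequenced; normalized read counts gave un-cleaved RNA fraction and ON/OFF fold-change.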
In the case of B1, the “Fold change in RNA expression between the ON state and the OFF state” value (from here on “Fold change”) turned out to be 0.8.
The same measure, in the same setting: the value for B2 was 0.9.
Take B3: the “Fold change” value is reported as 0.9.
Same read-out and setting: the same measure for B4: 0.9; for B5: 0.8; for B6: 0.8.
On the same count and under the same terms, the same measure for B7: 0.9.
Still for that read-out and setting: the value for B8 was 0.9.
Regarding B9, the “Fold change” value is listed as 0.9.
Still for that read-out and setting: the same measure for B10: 0.9; for B11: 0.9; for B12: 0.9.
Same read-out and setting: the value for B13 was 0.9.
On the same count and under the same terms, the value for B14 was 0.9.
In the case of B15, the “Fold change” value turned out to be 0.8.
Same read-out and setting: the value for B16 was 0.9; that for B17 was 0.9.
On to B18, for which the “Fold change” value is 0.9.
Still for that read-out and setting: the same measure for B19: 0.9; for B20: 0.9; for B21: 0.9.
In the case of B22, the “Fold change” value is reported as 0.9.
The same measure, in the same setting: the value for B23 was 0.9; that for B24 was 0.9.
Consider B25, for which the “Fold change” value turned out to be 0.9.

Staying with this data set, now noted: un-cleaved Renilla luciferase RNA, HEK293-T cells cultured with 1 mM theophylline (ON) over without theophylline (OFF); barcode read counts, triplicate.
Turning to B26, the “Fold change” value was 2.3 fold.
Take B27: the “Fold change” value amounted to 2.3 fold.
